# Assay results taken from the DeepSol protein solubility set.
# Assay: soluble on expression in E. coli; label from the status in PepcDB or PDB records
row,Sequence,soluble on expression in E. coli
1,SRDSAFRERLLRLAPKYPLVLAVSGGGDSVALALLVKEAGRQAVVAHLDHGLRPESPLDQAFVRALAERLGFPFFTERVEVARIAQARGENLEAVAREVRYAFLHRVAREVGARAILTAHTLDDQAETVLLQLLQGTARATGIREREGIVVRPLLAHTREELRAYLRARGEAWREDPTNQDPALDRNFLRLFVFPLLEERFPAAKRALARFAEARAEEEGVLERQAEARLLPDPRFFVPAFRAAPLLEAPLAVRRRALRRLLEKLGLRPEARLVLLLEEALRGRPQTLPGGVLARRKGGTLFLLPPRPRLPLPPGFRRPAPGDYLERPSGRKRLVDFLAEKGVPRELKPLWPVRAEGNRVVEVLGLYPPPPEEAHMAEALAEAASAFREGEVPVGAVLVLPGRVLRAHNRVEGLRDPTAHAEMLLLREAGPEARGGRLYVTLEPCLMCHHALAQAGVEVVYGAENLKEGALTRFGLPTRARGGVRERECAKLLRDFFARLREGCRSG,soluble
2,GMINQERLVNEFMELVQVDSETKFEAEICKVLTKKFTDLGVEVFEDDTMAVTGHGAGNLICTLPATKDGVDTIYFTSHMDTVVPGNGIKPSIKDGYIVSDGTTILGADDKAGLASMFEAIRVLKEKNIPHGTIEFIITVGEESGLVGAKALDRERITAKYGYALDSDGKVGEIVVAAPTQAKVNAIIRGKTAHAGVAPEKGVSAITIAAKAIAKMPLGRIDSETTANIGRFEGGTQTNIVCDHVQIFAEARSLINEKMEAQVAKMKEAFETTAKEMGGHADVEVNVMYPGFKFADGDHVVEVAKRAAEKIGRTPSLHQSGGGSDANVIAGHGIPTVNLAVGYEEIHTTNEKIPVEELAKTAELVVAIIEEVAK,soluble
3,MNTMEEKYILSDRGKVYYWIKESNSVFAKNLIFLPGLTANHHLFDFQIQYFSKNHNVLVWDAPAHGKSRPYLDFSYSNLVEELKVILDKQNMKKVVLIGQSAGGFVAQSFIVKYPNMVEGLMMIGTCPYGTDYYSKSDIFWLKQTEWMLKLFPDKLLRNIISKMCGATSEGRRSMLKMLEGYEKKELCHLMYLGFAGFIPEIQDLNIHCPVCLVVGDKDKTGKVRKYNEQWHNKTGYPLHIIKNASHNVNVDKPNELNQIMDIFIKQLNI,not soluble
4,MESNNGIILRVAEANSTDPGMSRVRLDESSRRLLDAEIGDVVEIEKVRKTVGRVYRARPEDENKGIVRIDSVMRNNCGASIGDKVKVRKVRTEIAKKVTLAPIIRKDQRLKFGEGIEEYVQRALIRRPMLEQDNISVPGLTLAGQTGLLFKVVKTLPSKVPVEIGEETKIEIREEPASEVLEEGG,soluble
5,MEKFRVIGSTQPLQGEVTISGAKNAALPILFASILAEEPVEVANVPHLRDIDTTMELLERLGAKVERNGSVHVDAGPINQYCAPYDLVKTMRASIWALGPLVARFGQGQVSLPGGCAIGARPVDLHIHGLEQLGATITLEDGYVKAHVDGRLQGAHIVMDKVSVGATITIMCAATLAEGTTVLDNAAREPEIVDTAMFLNKLGAKISGAGTDSITIEGVERLGGGKHAVVPDRIETGTFLVAAAVSRGKIVCRNTHAHLLEAVLAKLEEAGAEIECGEDWISLDMTGRELKAVTVRTAPHPGFPTDMQAQFTLLNMMAKGGGVITETIFENRFMHVPELKRMGAKAEIEGNTVICGDVDRLSGAQVMATDLRASASLVIAGCIAKGETIVDRIYHIDRGYERIEDKLSALGANIERFRD,not soluble
6,GMTQHLTIAQTYLAAWNEEDNERRRHLVGQAWAENTRYVDPLMQGEGQQGIAAMIEAARQKFPGYRFVLAGTPDGHGNFTRFSWRLISPDGDDVAGGTDVVSLNTEGRIDNVVGFLDGAVS,soluble
7,GSPPAQLSVHTVSWNSGHERAPTNLEELLGLNSGETPDVIAVAVQGFGFQTDKPQQGPACVKNFQSLLTSKGYTKLKNTITETMGLTVYCLEKHLDQNTLKNETIIVTVDDQKKSGGIVTSFTIYNKRFSFTTSRMSDEDVTSTNTKYAYDTRLDYSKKDDPSDFLFWIGDLNVRVETNATHAKSLVDQNNIDGLMAFDQLKKAKEQKLFDGWTEPQVTFKPTYKFKPNTDEYDLSATPSWTDRALYKSGTGKTIQPLSYNSLTNYKQTEHRPVLAKFRVTL,soluble
8,MGSDKIHHHHHHMNWKVTIKNTIEELAKLKKDVKIENEGDPEHELSDAEDKVMKIELEEEFKPTMYSLYEFKSLNDKRIASIDSSSRYLRDFSVNTCLIGLSVYSNREGFIDGPFTVDIPYIGISSYREILESLKIDDINVRYKNVVNYYYVNEPNNEYKIDDIADELRLEAENVGLKRVIQNHDIVIIDGPIYPTPLELTEEINLETEARRKHRLAYAKLVNERIELLNNNVIGVVKRLENSKKLWRVKEINETIGNVKRMKDVTIIELIDERLCRKNYEYVCTIGPFKIEYALEVKDEDGRNVIEKVPTKYAYYVIIRKKYFPPTFLRIESTNKNLDISPVLSRLTERLMPTYIEIVDRRSKRISASLFLYAYEIASNYLNIIHDDKMGYLSVISQFTSE,not soluble
9,MGSDKIHHHHHHMPKLKLIGVDLGGTTFSVGLVSEDGKILKKVTRDTLVENGKEDVIRRIAETILEVSDGEEAPYVGIGSPGSIDRENGIVRFSPNFPDWHNVPLTDELAKRTGKKVFLENDANAFVLGEKWFGAGRGHDHIVALTLGTGIGGGVVTHGYLLTGRDGIGAELGHVVVEPNGPMCNCGTRGCLEAVASATAIRRFLREGYKKYHSSLVYKLAGSPEKADAKHLFDAARQGDRFALMIRDRVVDALARAVAGYIHIFNPEIVIIGGGISRAGEILFGPLREKVVDYIMPSFVGTYEVVASPLVEDAGILGAASIIKERIGG,not soluble
10,MKKTRTANLHHLYHEALPEDVKLTPRVEVDNVHQRRTTDVYEHALTITAWQQIYDQLHPGKFHGEFTEILLDEIQVFREYTGLALRQSCLVWPNSFWFGIPATRGEQGFIGAQGLGSAEIATRPGGTEFELSTPDDYTILGVVISEDVISRQATFLHNPERVLHMLRNQLALEVKEQHKAALWGFVQQALATFSESPETLHQPAVRKVLSDNLLLAMGTMLEEAKPIHSAESISHQGYRRLLSRAREYVLENMSEPLTVLDLCNQLHVSRRTLQNAFHAILGIGPNAWLKRIRLNAVRRELISPWSQSATVKDAAMQWGFWHLGQFATDYQQLFAEKPSLTLHQRMRQWA,not soluble
11,MGSDKIHHHHHHMKLANQFNIAITPSGGRTGLSAGAVATNGEIVISMDKMNQILEFFPADRMVRVQAGVVTEQLQNYAEEQGMYYPVDFASAGSSQIGGNIGTNAGGIKVIKYGMTRNRVLGLTVVTGKGDILRLNKGMIKNATGYALQHLFIGGEGTLGLVTEAEIKLERQPQNLQVLVLGVPDFDAVMPVLHAFQKDIDLTAFEFFGELAMQKVLDRGHVQRPFETQCPFYVLLEFEAPYEPIIDKAMEIFEHCMEQGWVLDGVMSQSLDQVESLWRLREDISESIAPFIPYKNDISVLITHVPAFIREIDAIVQENYPDFEICWFGHIGDGNLHLNILKPENLTKDEFFAKCQVVNKYVFDTVKKYDGSISAEHGVGMTKKPYLEYSRSAEEIEYMKALKKVFDPKGIMNPGKLFDL,not soluble
12,SELFTLGACRQVGKSCFVLKTSEGLVMLDCGLHPSYQDDRRYPNFSLAFSYGPLKAVFITHCHADHVGALPILTERWGYDGPIYMSEPTRKLSYYILEECVGSWGGDDEWTDSSRSEWSYTQREVESCLTKCIVGWLDMCWVLTCLASS,soluble
13,MGSDKIHHHHHHMITVRDLSWQYEPLVDGGKPVDSLKHVSFDIKSGSFVGVIGPTGAGKSTLCMALAGIIPNLADGTMTGLVEVNGMNTSRHSVSALSERIGYVQQDPEAQLFCASVEDEIAFPLENRGIAPDIIDKQIDVMLDLVGMTGYRKRVPASLSGGQMQRVAIAAALAAEPDVLILDEPTAALDPEGKQEVFDVLERIRQTRSMTVIMAEQDTEHIAYWADQVLFMVNGELVRNGDASLFVREKGLLESSGVQVADDPLPQVKAVQQGKKHKKDKKNQPERSKDVVISLDHVSYQYERGGNASKALDDVTFDIERGSFIGLIGRNGSGKTTLAKHLNGLIRPTQGTVTVDGLDASKHSVGEMAAHVGFVFQNPDHQIFCSTTKEEIAFGPTALGLDGATVFKRVDEMLTLFDLHRYEDVSPATLGYGERRAVALSSVLAMRTPILVLDEPTAGLDHRLAARFLGTIEKLNQRGVTIVMISHDMRAVYRYCTHVLELEDGKVVQYGPIDRSEAAQKQSRTIRKPRKSNGPVSATHVLLKVTKHEEGRH,not soluble
14,MSIMDVQHVAQFYQQLDKSQLHRLIEIYHPDVVFEDAAHRIEGFDALYQYFLNLYQNVHTCTFTIHEQYAVNEGAFLVWTMHLRHPKLAKGEQVDVKGVSHLHFAEGKVTYHRDYFDMGEMLYEQLPVLGQVIRAIKRRLGQ,not soluble
15,MLSKISESLANLSGAERKVAECALAEPKWFVHAAVAEIAERASVSQPTVIRFCRSLGYKGLPEFKLALSASIGHEGMPYVHEELNADDDMASVVEKVLGNAAASLLGERRFLKESELENAIATLMHARRVEFYGVGNSGIVAQDAQHKFFRFGMSTVAYVDTHTQLMAASVLSDQDVLVAISNTGSSIELLDAVSIAKENGASVIALTRNDSPLAQLADCVLSVATQENAELYTPMVSRLLQLAVIDILAIGLALRLGDAASLQLQKSKKSIHNKHIDYDKD,soluble
16,MDDATNKKRKVFVSTILTFWNTDRRDFPWRHTRDPYVILITEILLRRTTAGHVKKIYDKFFVKYKCFEDILKTPKSEIAKDIKEIGLSNQRAEQLKELARVVINDYGGRVPRNRKAILDLPGVGKYTCAAVMCLAFGKKAAMVDANFVRVINRYFGGSYENLNYNHKALWELAETLVPGGKCRDFNLGLMDFSAIICAPRKPKCEKCGMSKLCSYYEKCST,soluble
17,MIHSNEPLPYAIEYAKSGRSTCKTCKKNIALDQLRMSMNRPSTFFDGNMDSWFHYNCFWNKMIRGRDDINISSIRGVDWLRWEDQEKLRQEIQHFKTASPPTLTPLFSTTTVILSTIKTEKSLSNRGKCGKCGQNFERGEIKAHNKGKANHFECFLQEFDKISGTVEDIPGWADYEANFKIKATGEYVEALAAKGGSTEPATPASASPTPPEAETPVLSAEGSPESSNKRPASAEIIEIDGEGNPDENDFAKKRRMKKEARLMEVQKKRMKKQSDLLWEYRQIFERMPYTDNISILRENEQDIPEGHDRTAQDVFHEKTKNDWIYRKHFRKMPGMFSYVETDYSEFVGTNNGHKKKITPGSKITPGSKTLLPKSVKEVVMSIFDVENMKSALKSFEIDVNKMPLGRLSHNQINLAFEVLNDISDLLVKLPIDASKILDFSNKFYTIIPHNFGMRVPEPIDSFHKIKEKNNMLNALLDIKFAYDQISGGDVPASTSLSIDPVDINYRKLKCIMEPLQQGCDDWNMIHQYLKNTHGATHDLKVELIDILKVNRDNESSKFKRHIGNRRLLWHGSGKMNFAGILGQGLRIAPPEAPVSGYMFGKGVYFADMFSKSFFYCRANAKEEAYLLLCDVALGNVQQLMASKNVSRQTLPAGFQSVQGVGRQCPREIGSYKNPDGYTVPLGLTYMQLQGKQNVDYHLLYNEFIVYDVDQIQLKYLVRVKMHHARHL,not soluble
18,MRYEEPVFRPPSEAFSLIVQATIGCSWNRCTFCGMYKMKKFRVRDIEEVKEDFRLAKEIYGDVRRVFLADGNALAADTDYLLEIADYANKLFNLERISCYATPQDILEKSKEELKEIRNAGIKLLYVGIESGDDEILERIRKGVSSNEIAEACMKAHECGFELSVTVLTGIGGKERSYKNARNTARLLNRISPKYTGVLTYIPVPNTPLYVKIKRGEFLLPNPLENLLELRWMVERIEARTIFRCNHASNYLPLKGTLPEDREKLLKAIDYAIAHPEVLKPEWLRGL,not soluble
